Test results published in publication PMC4506568, “Targeting a Dynamic Protein–Protein Interaction: Fragment Screening against the Malaria Myosin A Motor Complex” (Chemmedchem, 2014).
pKd: −log10 of the molar value.

Key:
[1] = biological target: Plasmodium falciparum myosin A tail domain interacting protein, residues 61–204 (PfMTIPΔ60) (Plasmodium falciparum) (UniProt Q8I4W8); assay: differential scanning fluorimetry; 5 μM PfMTIPΔ60 with 200 μM peptide in buffer A (20 mM HEPES pH 7.5, 50 mM NaCl, 1 mM TCEP), 10× SYPRO Orange, 15–80 °C
[2] = biological target: Plasmodium falciparum myosin A tail domain interacting protein, residues 61–204 (PfMTIPΔ60) (Plasmodium falciparum) (UniProt Q8I4W8); assay: ITC; 303 K; cell with about 200 μL of 20 μM PfMTIPΔ60 in buffer A (20 mM HEPES pH 7.5, 50 mM NaCl, 1 mM TCEP); peptide added in 2 μL injections from 250 μM; single site fit; n=1

## acetylated peptide control1 (acetyl-capped myoA tail from Leu 805) (from UniProt Q8IDR3 805-818)
[1]
  Tm of the complex: 45.4 °C

## acetylated peptide control2 (acetyl-capped myoA tail from Leu 804) (from UniProt Q8IDR3 804-818)
[1]
  Tm of the complex: 54.5 °C

## acetylated peptide control3 (acetyl-capped myoA tail from Ser 803) (from UniProt Q8IDR3 803-818)
[2]
  pKd: 6.97
[1]
  Tm of the complex: 54.9 °C
